Here are results for five molecules from publication PMC7755397, “In vitro reconstitution of dynamically interacting integral membrane subunits of energy-coupling factor transporters” (eLife, 2020).

Data set [1] has as its system T1, ECF-FolT2.
T1 construct: four-subunit complex, 10xHis-TEV on EcfA, Strep on FolT2; expressed in E. coli MC1061; purified in DDM, reconstituted in proteoliposomes; ~120 kDa; Energy-coupling factor transporter transmembrane protein EcfT
Nature of the data set: initial rate of radiolabelled uptake into proteoliposomes. In kind it is biochemical, Lactobacillus delbrueckii subsp. bulgaricus. Particulars: 10 mM lumenal Mg-ATP, pH 7.5, 30 °C; labelled compound (3H tracer); read-out: apparent Km.

In data set [2] the test system is T2, ECF-PanT.
T2 construct: four-subunit complex, 10xHis-TEV on EcfA, Strep on PanT; expressed in E. coli MC1061; purified in DDM, reconstituted in proteoliposomes; ~120 kDa; Energy-coupling factor transporter transmembrane protein EcfT
The description is as above. To be noted: 5 mM lumenal Mg-ATP, pH 7.5, 30 °C; labelled compound (3H tracer); read-out: apparent Km. In kind it is biochemical, Lactobacillus delbrueckii subsp. bulgaricus.

Substrate in data set [3]: Nc1ncnc2c1ncn2[C@@H]1O[C@H](COP(=O)(O)OP(=O)(O)OP(=O)(O)O)[C@@H](O)[C@H]1O
Nature of the data set: initial rate of radiolabelled pantothenate uptake into proteoliposomes at varied lumenal ATP. In kind it is biochemical, Lactobacillus delbrueckii. To be noted: 100 nM pantothenate, Mg2+, pH 7.5, 30 °C, sigmoidal, cooperative.

Substrate in data set [4]: Nc1ncnc2c1ncn2[C@@H]1O[C@H](COP(=O)(O)OP(=O)(O)OP(=O)(O)O)[C@@H](O)[C@H]1O
Description: initial rate of radiolabelled folate uptake into proteoliposomes at varied lumenal ATP. In kind it is biochemical, Lactobacillus delbrueckii. Particulars: 100 nM folate, Mg2+, pH 7.5, 30 °C, sigmoidal, cooperative.

For data set [5], the target named is T3, ECF-PanT (whole pantothenate transporter complex: EcfA, EcfA', EcfT, PanT) (Lactobacillus delbrueckii subsp. …).
T3 construct: Four subunits, Mw ~120 kDa as printed for a full ECF-transporter complex; source: SEC in DDM; copies: + + +
T3 chain 1: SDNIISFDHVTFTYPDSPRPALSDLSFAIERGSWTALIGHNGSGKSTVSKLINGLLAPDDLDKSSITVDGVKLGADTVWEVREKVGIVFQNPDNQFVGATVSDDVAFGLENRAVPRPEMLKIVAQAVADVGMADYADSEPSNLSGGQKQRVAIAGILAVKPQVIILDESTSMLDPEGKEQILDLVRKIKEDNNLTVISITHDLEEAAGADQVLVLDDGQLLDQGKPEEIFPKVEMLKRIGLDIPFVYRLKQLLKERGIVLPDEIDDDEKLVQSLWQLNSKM
T3 chain 2: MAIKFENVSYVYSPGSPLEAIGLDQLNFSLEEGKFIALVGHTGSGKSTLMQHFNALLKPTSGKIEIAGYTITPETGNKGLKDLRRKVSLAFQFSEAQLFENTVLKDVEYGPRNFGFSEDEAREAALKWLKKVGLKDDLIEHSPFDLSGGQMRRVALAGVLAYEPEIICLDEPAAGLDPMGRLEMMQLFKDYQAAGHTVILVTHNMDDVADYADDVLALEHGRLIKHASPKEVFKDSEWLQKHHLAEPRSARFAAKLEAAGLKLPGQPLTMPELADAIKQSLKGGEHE
T3 chain 3: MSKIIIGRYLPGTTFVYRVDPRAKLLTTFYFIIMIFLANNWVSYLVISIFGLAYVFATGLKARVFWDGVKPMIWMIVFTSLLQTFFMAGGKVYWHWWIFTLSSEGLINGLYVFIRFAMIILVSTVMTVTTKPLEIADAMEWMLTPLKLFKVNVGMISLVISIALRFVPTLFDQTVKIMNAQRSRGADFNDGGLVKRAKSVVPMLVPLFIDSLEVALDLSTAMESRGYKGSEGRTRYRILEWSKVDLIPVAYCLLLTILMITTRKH
Description: crystal structure; ECF-PanT-Nanobody 81 complex at 5 mg/mL with 5 mM MgATPγS; 70 mM sodium citrate pH 4.5, 22% (v/v) PEG300, 5°C; 2.8 Å, space group P1, two copies of the complex in the asymmetric unit. Particulars: both partners purified.

Take `Nc1nc2ncc(CNc3ccc(C(=O)N[C@@H](CCC(=O)O)C(=O)O)cc3)nc2c(=O)[nH]1` [folate]: the Km – broadly, the concentration of substrate that gives half-maximal velocity – in data set [1] was 0.082 ± 0.02 µM.
As for `CC(C)(CO)[C@@H](O)C(=O)NCCC(=O)O` [pantothenate], in data set [2], the Km was determined as 0.046 ± 0.011 µM.

B1: ECF-PanT (Lactobacillus delbrueckii subsp. bulgaricus ATCC 11842 = JCM 1002) (protein)
chain 1: MSDNIISFDHVTFTYPDSPRPALSDLSFAIERGSWTALIGHNGSGKSTVSKLINGLLAPDDLDKSSITVDGVKLGADTVWEVREKVGIVFQNPDNQFVGATVSDDVAFGLENRAVPRPEMLKIVAQAVADVGMADYADSEPSNLSGGQKQRVAIAGILAVKPQVIILDESTSMLDPEGKEQILDLVRKIKEDNNLTVISITHDLEEAAGADQVLVLDDGQLLDQGKPEEIFPKVEMLKRIGLDIPFVYRLKQLLKERGIVLPDEIDDDEKLVQSLWQLNSKM
chain 2: T3 chain 2
notes: with Energy-coupling factor transporter transmembrane protein EcfT; Pantothenate ECF transporter S component PanT
With B1, the Km in data set [3] amounted to 5600 ± 1000 µM.

B2: ECF-FolT2 (Lactobacillus delbrueckii subsp. bulgaricus ATCC 11842 = JCM 1002) (protein)
chain 1: B1 chain 1
chain 2: T3 chain 2
notes: with Energy-coupling factor transporter transmembrane protein EcfT; Folate ECF transporter S component FolT2
With B2, in data set [4], the Michaelis constant (Km) is 5600 ± 1700 µM.

B3: nanobody CA14381 (Nb81) (VHH)
VHH: QVQLVESGGGLVQPGGSLRLSCTASGFTLDDYAIGWFRQAPGKEREGISCISRSGSSTTYADSVKGRFTISRDRAENTVYLQMNSLKPEDTADYYCAATPVWYWSCAVKVGPYDYWGQGTQVTVSS
notes: the nanobody chain of PDB 6ZG3 (solved here); Llama (Lama glama) nanobody selected by phage display against ECF-PanT; Cloned in a Golden Gate variant of pMESy4 (GenBank KF415192); also called nanobody 81; Nanobody 81; source: E. coli WK6 periplasm, purified (Ni-Sepharose, desalting)
With B3, the binding result in data set [5] was “binds”.
